Source: patent US20200113969

Columns and labels:
[1] = test system: deflamin isolated from Lupinus albus seeds
[2] = test system: peak 1 of the RP-HPLC fractionation of L. albus deflamin
[3] = biological target: peak 2 of the RP-HPLC fractionation of L. albus deflamin (UniProt F5B8W8)
[4] = biological target: peak 3 of the RP-HPLC fractionation of L. albus deflamin (UniProt F5B8W8)
[5] = test system: peak 4 of the RP-HPLC fractionation of L. albus deflamin

Chain of MMP-9 (commercial enzyme, Sigma) (chain, as listed by the source): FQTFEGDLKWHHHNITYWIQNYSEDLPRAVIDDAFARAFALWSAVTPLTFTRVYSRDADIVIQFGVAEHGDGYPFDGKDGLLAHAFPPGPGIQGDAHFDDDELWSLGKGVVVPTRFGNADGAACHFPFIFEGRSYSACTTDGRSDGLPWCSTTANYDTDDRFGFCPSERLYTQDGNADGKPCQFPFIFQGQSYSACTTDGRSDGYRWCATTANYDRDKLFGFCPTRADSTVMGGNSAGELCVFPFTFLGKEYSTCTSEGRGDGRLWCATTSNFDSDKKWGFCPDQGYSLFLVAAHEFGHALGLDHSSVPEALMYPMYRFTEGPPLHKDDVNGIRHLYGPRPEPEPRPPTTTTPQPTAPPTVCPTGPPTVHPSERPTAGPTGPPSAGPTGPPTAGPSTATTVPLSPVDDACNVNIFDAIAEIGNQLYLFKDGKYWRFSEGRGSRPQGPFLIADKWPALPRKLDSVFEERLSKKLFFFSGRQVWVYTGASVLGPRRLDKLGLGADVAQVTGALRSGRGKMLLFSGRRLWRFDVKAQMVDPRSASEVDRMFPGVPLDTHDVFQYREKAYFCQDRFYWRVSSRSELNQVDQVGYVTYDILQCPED
Chain of deflamin isolated from Lupinus albus seeds (chain, as listed by the source, chain 1 of 2): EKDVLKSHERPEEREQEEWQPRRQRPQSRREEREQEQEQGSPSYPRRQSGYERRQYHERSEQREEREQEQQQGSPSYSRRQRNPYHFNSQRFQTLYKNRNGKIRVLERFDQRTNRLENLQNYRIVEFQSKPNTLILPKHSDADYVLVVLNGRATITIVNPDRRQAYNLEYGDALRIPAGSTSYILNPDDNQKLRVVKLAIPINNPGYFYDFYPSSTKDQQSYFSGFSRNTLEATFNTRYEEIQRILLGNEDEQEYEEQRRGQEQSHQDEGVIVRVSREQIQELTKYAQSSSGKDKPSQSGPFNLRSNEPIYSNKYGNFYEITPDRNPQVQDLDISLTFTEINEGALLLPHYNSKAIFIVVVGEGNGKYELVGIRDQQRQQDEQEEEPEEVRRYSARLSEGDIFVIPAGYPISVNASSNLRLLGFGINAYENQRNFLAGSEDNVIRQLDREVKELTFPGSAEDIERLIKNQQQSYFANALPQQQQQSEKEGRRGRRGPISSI
Chain of deflamin isolated from Lupinus albus seeds (chain, as listed by the source, chain 2 of 2): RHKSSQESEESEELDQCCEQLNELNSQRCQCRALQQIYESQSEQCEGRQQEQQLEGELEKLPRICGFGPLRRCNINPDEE
Chain of peak 3 of the RP-HPLC fractionation of L. albus deflamin (F5B8W8 whole entry, looked up): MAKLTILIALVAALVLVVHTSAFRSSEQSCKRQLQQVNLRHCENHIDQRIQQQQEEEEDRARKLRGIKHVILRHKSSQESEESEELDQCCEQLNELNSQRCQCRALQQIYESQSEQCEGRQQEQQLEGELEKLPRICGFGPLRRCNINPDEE
Chain of peak 2 of the RP-HPLC fractionation of L. albus deflamin (F5B8W8 whole entry, looked up): as above

MMP-9 (commercial enzyme, Sigma)
MMP-9 proteolytic activity on DQ-gelatin, deflamin at 50 µg/mL [1]: the highest inhibition (P<0.05) detected for deflamin, which induced a reduction greater than 80% of MMP-9 activity
MMP-9 proteolytic activity, DQ fluorogenic assay, 25 µg/ml [2]: all the selected peaks presented some degree of MMP inhibition
MMP-9 proteolytic activity, DQ fluorogenic assay, 25 µg/ml [3]: all the selected peaks presented some degree of MMP inhibition
MMP-9 proteolytic activity, DQ fluorogenic assay, 25 µg/ml [4]: all the selected peaks presented some degree of MMP inhibition and also inhibited invasion, but peak 3 was the one with the highest observed activities
MMP-9 proteolytic activity, DQ fluorogenic assay, 25 µg/ml [5]: all the selected peaks presented some degree of MMP inhibition
